This test has as its target H-2K^b class I-determinants expressed on LM fibroblasts transduced with pBR327H-2K^b (mouse) (UniProt P01901). Kind of test: flow cytometry staining of LM cells transduced with pBR327H-2K^b, control staining. (Flow cytometry measures light scatter and fluorescence of single cells or particles in a stream.)

Experimental findings from US20110014241A1 are described below.

Chain of UniProt P01901 (P01901 22-369): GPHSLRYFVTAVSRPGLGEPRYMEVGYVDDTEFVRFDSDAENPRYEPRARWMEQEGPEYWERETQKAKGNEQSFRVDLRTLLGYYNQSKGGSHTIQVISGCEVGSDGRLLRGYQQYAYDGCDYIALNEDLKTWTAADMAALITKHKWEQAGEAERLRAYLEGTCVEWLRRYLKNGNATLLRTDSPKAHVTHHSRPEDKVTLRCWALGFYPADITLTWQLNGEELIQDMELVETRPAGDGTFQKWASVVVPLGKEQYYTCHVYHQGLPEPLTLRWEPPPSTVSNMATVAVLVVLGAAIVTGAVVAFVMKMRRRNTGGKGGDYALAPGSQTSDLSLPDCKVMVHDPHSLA

On to isotope control sera (antibody), for which the mean fluorescence index (MFI) was 0.3.
